Laboratory results as given in patent US20220176020A1, “Improved Bone Implant Matrix Comprising Proline-Rich Peptide And Method Of Preparing The Same” (Industrie Biomediche Insubri S.A., priority 2019, published 2022).
No end group written: not given here. *: point of attachment. FITC = O=C1OC2(c3ccc(O)cc3Oc3cc(O)ccc32)c2ccc(NC(=S)*)cc21

Legend:
[1] = Release profile of FITC-labelled PRP from SBP in 10 ml purified water; assay type: physicochemical; details: for period of highest release rate / release of peptide: 10 ml purified water; for release of peptide: FITC on C- or N-terminal
Description: For 4 days the solution was analysed every 24 h using UV-vis, then 48 h after, and finally […] after. The water was changed every time to better simulate in vivo conditions, maximizing the drive force. Having a FITC+H2O calibration curve, the absorbance could be related to the concentration. Using a known quantity of water, the mass released could be derived from the measured concentration.
For a proper FITC release profile, also samples of bone implant matrix, identified as “SB”, reproduced according to example 3 were studied, since other components of the “SB” is likely to be released, the blank used for the spectroscopy was based on a water+“SB” solution. […] To identify the presence of “PRP” in the aqueous solution, FITC molecules were either attached to the C- or N-terminal of the peptide before loading.
Calibration was used to derive the concentration of FITC released in the water solution at the given time points. With a known quantity of water used at a given time, the mass released can be derived.
Best fit plots where made using the inbuild best-fit function of Graph (Software) assuming both a logarithmic and power function. In general, the logarithmic functions were more accurate (R^2-values closer to 1).

MC3T3-E1 cells = assay: Real-time PCR of osteogenic marker mRNA levels (COL1A1, ALP, OC, VEGFA); assay type: cell-based, murine; details: FIG. 10; for COL1A1 mRNA levels: after 14 days; for OC level: time at which highest/max is reached: measured at 1, 3, 7 and 14 days
Description: The cells assessed was murine pre-osteoblastic cell line (MC3T3-E1) obtained from the German Collection of Micro-organisms and Cell Cultures (DSMC, Braunschweig, Germany). MC3T3-E1 cells were routinely cultured at 37° C. in a humidified atmosphere of 5% CO2, and maintained in α-MEM supplemented with 10% foetal calf serum (FCS) and antibiotics (50 IU penicillin/ml and 50 μg streptomycin/ml). Cells were subcultured 1:4 before reaching confluence using PBS and trypsin/EDTA. All experiments were performed in the same passage of the MC3T3-E1 cells.
Then, cells were maintained static at 37° C. in a humidified atmosphere of 5% CO2 for up to 14 days. The same number of cells were cultured in parallel in plastic in all the experiments.
Total RNA was isolated with Tripure (Roche Diagnostics) and RNA was quantified using a spectrophotometer set at 260 nm. Real-time PCR was performed for two reference genes and several target gene (Table) The same amount of total RNA from each sample (370 ng) was reverse transcribed to cDNA at 37° C. for 60 min in a final volume of 20 μl, using High Capacity RNA to cDNA kit (Applied Biosystems). Each cDNA was diluted 1/7 and these dilutions are used to carry on the quantitative PCR.
Real-time PCR was performed in the Lightcycler 480® (Roche Diagnostics, Germany) using SYBR green detection. For each reaction, 7 μl of Lightcycler-FastStart DNA MasterPLUS SYBR Green I, 0.5 μM of sense and antisense specific primer and 3 μl of the cDNA dilution in a final volume of 10 μl was added. The normal amplification program consisted of a preincubation step for denaturation of the template cDNA (95° C.), followed by 45 cycles consisting of a denaturation step (95° C.), an annealing step (60° C., for all expect for ALP and osterix, which were 65° C. and 68° C. respectively) and an extension step (72° C.). Real-time efficiencies were calculated from the given slopes in the LightCycler 480 software using serial dilutions.
Relative quantification after PCRWas calculated by dividing the concentration of the target gene in each sample by the mean of the concentration of the two reference genes (Housekeeping genes) in the same sample using the advanced relative quantification method provided by the LightCycler 480 analysis software version 1.5 (Roche Diagnostics, Mannheim, Germany).

| Substance | release rate ([1]; after 14 days, FIG. 2) | COL1A1 mRNA levels (MC3T3-E1 cells) | OC level: time at which highest/max is reached (MC3T3-E1 cells) | period of highest release rate [1] | initial release ([1]; FIG. 2, comparison P2 vs P5) | release of peptide ([1]; after 14 days) |
| --- | --- | --- | --- | --- | --- | --- |
| P2N: PRP version P2 (SEQ ID 4) with FITC attached on the N terminal ({FITC}-PLVPSQPLVPSQPLVPSQPQPPLPP) | jump in release rate |  |  |  |  |  |
| PHQ PMQ PQP PVH PMQ PLP PQP PLPP (PHQPMQPQPPVHPMQPLPPQPPLPP; proline rich peptide) [P6, artificial Proline-Rich Peptide] |  | raised significantly | 7 days |  |  |  |
| PLV PSQ PLV PSQ PLV PSQ PQP PLPP (PLVPSQPLVPSQPLVPSQPQPPLPP; proline rich peptide) [P2, artificial Proline-Rich Peptide] |  |  |  | highest release rate the two first days | higher initial release than P5 | 11.75 to 14.01 µg |
| PLV PSS PLV PCC PLV PCC PSP PLPP (PLVPSSPLVPCCPLVPCCPSPPLPP; proline rich peptide) [P5, artificial Proline-Rich Peptide] |  | drop | fairly stable | highest release rate the two first days |  | 8.75 to 9.90 µg |
